The values below come from US20210000879A1, “METHODS AND COMPOSITIONS FOR MRNA-BASED MODULATION AND DETECTION OF CELL PHENOTYPES” (Georgia Tech Research Corporation, priority 2018, published 2021).

Series [1] relates to rat model of complete heart block. The series can be described thus: Effect of TGF-beta small molecule inhibitor on ventricular pacing with TBX18 mRNA. Format: in vivo. To be noted: A83-01 released by osmotic pump. As to the method:
On Day 0, an osmotic pump releasing A83-01 (a TGF-beta inhibitor, Sigma Aldrich) was implanted into the rats. On Day 1, TBX18 mRNA was injected into the rats and a telemetry device was also implanted. Two doses of TBX18 mRNA were given to the rats: (i) a low dose of 100 μg TBX18 mRNA with 68.4 μl RNA-free phosphate-buffered saline (PBS), or (ii) a high dose of 300 μg TBX18 mRNA with 205 μl RNA-free PBS. A continuous telemetry recording of each rat's electrocardiogram (ECG) was made for 21 days after implantation of the telemetry device. In addition, 3-lead surface ECGs were performed on anesthetized animals on Days 7, 14, and 21 along with an isoproterenol challenge. The heart was harvested from each animal on Day 21.
The inventors then determined the effects of including a TGF-beta small molecule inhibitor on ventricular pacing with TBX18 mRNA (FIG. 16).

The test system of series [2] is neonatal rat ventricular cardiomyocytes (NRVMs). The series can be described thus: CatCh-V5 expression time course by imaging and flow cytometry. In kind it is cell-based. To be noted: 24 hour pulse of mRNA; Viromer Red. The procedure: (§1) As a first step, the inventors expressed CatCh in neonatal rat ventricular cardiomyocytes (NRVMs) using IVT mRNA. Transfection conditions were varied using GFP mRNA. After identifying the optimal vehicle for transfection (Viromer Red), the expression of the protein of interest, CatCh-V5, was assessed after a 24 hour pulse of mRNA. […] CatCh-V5 localized to the membrane of transfected cells roughly 12 hours after transfection. […] The inventors next evaluated the function of transfected NRVMs. CatCh is an opsin, which induces a membrane depolarization in response to blue light stimulation. CatCh transfected NRVMs were exposed to a range of optical intensities (0 to 100% power) using 475 nm blue LED light. At each light intensity, the inventors scanned a range of stimulation durations (1 to 15 milliseconds). A train of monophasic square waves at a frequency of 2 Hz for a total of 30 seconds was utilized. The inventors compared the capture rate of CatCh versus Channelrhodopsin 2 (ChR2), a commonly used opsin. […] Cells were then subjected to blue light stimulation and analyzed for capture at different transfection amounts and timepoints.

In series [3] the test system is neonatal rat ventricular myocytes (NRVMs). The series can be described thus: MEA light pacing of NRVMs transfected with ChR2 or CatCH mRNA. Format: cell-based. The text has this: For proper characterization of cells transfected with opsins, in addition to protein expression, another metric, function, can assist in properly optimizing the use of mRNA as an expression vector. Functional characterization can be performed with the use of a multi-electrode array (MEA). An MEA device uses electrodes to measure the field potential of nearby cells. Changes in field potential in cardiomyocytes can be detected in an amplitude and location-specific manner depending on the pickup electrode. The MEA device used, a Maestro from Axion Biosystems, allows the simultaneous measurement and light excitation of 16 electrodes per well in a 48 well plate. By employing primary ventricular cardiomyocytes from neonatal rats (NRVMs), functional expression of an opsin such as ChR2 can be measured as a synchronization event between electrical activity and pulsed light excitation from the LEDs embedded in the Axion Lumos device.
Pacing cardiac myocytes allows the screening of new drugs in a controlled environment, where the effect on beat frequency and waveforms can be measured against predicted values in the presence/absence of drugs. The inventors transfected neonatal rat ventricular myocytes (NRVMs) with mRNA encoding ChR2 and a modified ChR2 with a single amino acid substitution, CatCH. NRVMs were plated on MEA plates and the next day were transfected with ChR2 or CatCH mRNA at varying concentrations in triplicate wells using Viromer Red (Lipocalyx). […] Furthermore, when interrogated with excitation rates of 1 hz, 2 hz, and 3 hz, CatCH transfected cells were able to be driven at higher beat rates (3 hz) up to 72 hours post-transfection (FIG. 8) compared to ChR2 transfected cells. As the amount of mRNA and structure of the opsin are very similar, this difference can be inferred as due to enhanced opsin sensitivity—fewer opsins per cell were necessary to drive cardiac action potentials. When opsin expression was low, such as at timepoints several days following transfection, cardiac cells could only be driven at the slower rate of 1 hz successfully.

For series [4], the system named is neonatal rat ventricular cardiomyocytes (NRVMs). Description: Capture of CatCh transfected NRVMs by 475 nm blue light stimulation. Format: cell-based. The procedure: as §1
In series [5] the test system is Human iPS cell-derived cardiomyocytes. The series can be described thus: MEA functional testing of mRNA-expressed opsins with light excitation. In kind it is cell-based. As to the method: Human iPS cell-derived cardiomyocytes were seeded into 48 well Axion MEA plates and cultured for 2 weeks until completely synchronized electrical activity (beat rate) was observed. Cells were transfected with ChR2 mRNA, JAWs mRNA, delivery vehicle only, or a mixture of both mRNAs using a modified PEI derivative (Lypocalyx Gmbh). Transfected cells were assayed using the Axion Maestro MEA and Lumos light excitation device at 6 hours and 24 hours post transfection. Assays were comprised of electrical readout (16 electrodes per well) with either no stimulus, blue light stimulus (drives firing in ChR2-transfected cells), orange light stimulus (inhibits firing in JAWs-transfected cells), or blue light impulse stimulus with a period of constant orange light.
As a preliminary step, the inventors determined the optimal amount of delivery vehicle to transfect cells for adequate function of the expressed mRNA, defined as complete control of beat rate with ChR2 and conversely complete inhibition of firing with JAWs. […] Delivery vehicle alone had no effect on native cell beat rates, thus it is likely that higher amounts of protein can be generated if opsin function is required more rapidly. […] Using 0.1 ul of delivery vehicle, all three wells (100%) were paced via light (FIG. 3C).
The inventors next tested expression and function of ChR2 and JAWS (inhibitory opsin) in iPS-derived cardiomyocytes. Here, 500 ng each of ChR2 and JAWS mRNA were delivered to iPS-derived cardiomyocytes in an MEA plate (FIG. 9). The next day, cells were paced using pulsed blue light stimulation (arrows). At the same time, orange light was used for several seconds (bars) to prevent cardiomyocytes from beating.

Take `Cc1cccc(-c2nn(C(=S)Nc3ccccc3)cc2-c2ccnc3ccccc23)n1` [A83-01, reference compound]: in series [1], the “effect on ventricular pacing / block” value is given as “reversed the block”.

B1: CatCH: mRNA encoding a modified ChR2 with a single amino acid substitution, CatCH (nucleic acid)
DNA: GGGAAATAAGAGAGAAAAGAAGAGTAAGAAGAAATATAAGAGCCACCATGGATTACGGCGGAGCCCTGTCTGCCGTGGGCAGAGAACTGCTGTTCGTGACCAACCCCGTGGTCGTGAACGGCAGCGTGCTGGTGCCTGAGGACCAGTGTTACTGCGCCGGCTGGATCGAGAGCAGAGGCACAAACGGCGCCCAGACCGCCTCTAACGTGCTGCAGTGGCTGGCCGCTGGCTTCAGCATCCTGCTGCTGATGTTCTACGCCTACCAGACCTGGAAGTCTACCTGCGGCTGGGAAGAGATCTACGTGTGCGCCATCGAGATGGTCAAAGTGATCCTGGAATTCTTCTTCGAATTCAAAAACCCCTCCATGCTGTACCTGGCCACCGGCCACAGAGTGCAGTGGCTGAGATACGCCGAGTGGCTGCTGACCTGCCCCGTGATCTGCATCCACCTGAGCAACCTGACCGGCCTGTCCAACGACTACAGCAGACGGACCATGGGCCTGCTGGTGTCCGACATCGGCACAATCGTGTGGGGCGCCACAAGCGCCATGGCCACAGGCTACGTGAAAGTGATCTTCTTCTGCCTGGGCCTGTGCTACGGCGCCAACACATTCTTCCACGCCGCCAAGGCCTACATCGAGGGCTACCACACAGTGCCCAAGGGCAGATGCAGACAGGTCGTGACAGGCATGGCCTGGCTGTTCTTCGTGTCCTGGGGCATGTTCCCCATCCTGTTCATCCTGGGCCCTGAGGGCTTCGGCGTGCTGTCTGTGTACGGCTCTACCGTGGGCCACACCATCATCGACCTGATGAGCAAGAACTGTTGGGGACTGCTGGGCCACTACCTGAGAGTGCTGATCCACGAGCACATCCTGATTCACGGCGACATCAGAAAGACCACCAAGCTGAACATCGGCGGCACCGAGATCGAGGTGGAAACCCTGGTGGAAGATGAGGCCGAGGCTGGCGCTGTGCCAGCCGCTGCTACAGGTAAGCCTATCCCTAACCCTCTCCTCGGTCTCGATTCTACGTGATAAGCTGCCTTCTGCGGGGCTTGCCTTCTGGCCATGCCCTTCTTCTCTCCCTTGCACCTGTACCTCTTGGTCTTTGAATAAAGCCTGAGTAGGAAGGC
modifications: mRNA transcribed from DNA
B1: in series [2], the “time after transfection to membrane localization” value is on record as “roughly 12 hours”, the “time by which expression dropped off significantly” value was at most 5 days and the “time of peak expression” value came to 24 h. In addition, the “light sensitivity compared with ChR2 based on MEA measurements” value in series [3] (125 ng of CatCH versus 1000 ng of ChR2) is “much higher sensitivity than ChR2”. For the same molecule, the “maximum beat rate comparison with ChR2” value in series [3] (1 hz, 2 hz, 3 hz LED pulsing, time course) was “able to sustain higher frequencies”. For the same molecule, the “LED light intensity to which the opsin responds” value in series [3] (24 hours post transfection) came out at 5%. Further, the “light required for electrical response relative to ChR2” value in series [3] (24 hours post-transfection) was 15 times. Further, the “time post-transfection up to which cells could be driven at 3 hz” value in series [3] (LED pulsing, maximum intensity excitation light) is reported as “up to 72 hours”. Moreover, in series [3] (excitation rates of 1 hz, 2 hz, and 3 hz, up to 72 hours post-transfection), the “beat rate at which cells were able to be driven” value is listed as 3 hz. Further, the “optimal RNA dose to achieve reliable pacing over time” value in series [4] (0.1, 1 and 10 ng/1000 cells tested) is recorded as 1 ng/1,000 cells. The “capture rate versus Channelrhodopsin 2 (ChR2)” value in series [4] (475 nm blue LED, 0 to 100% power, 1 to 15 milliseconds, 2 Hz for 30 seconds) is given as “superior sensitivity”. Also, the “days post-transfection with highest capture rates at lowest stimulation thresholds” value in series [4] (blue light stimulation) was in the range of 1 to 3 days.

B2: JAWS mRNA: mRNA encoding the inhibitory opsin JAWS, activated by constant orange or red light (nucleic acid)
chain: GGGAAATAAGAGAGAAAAGAAGAGTAAGAAGAAATATAAGAGCCACCATGACCGCCGTGTCTACCACAGCCACAACAGTGCTGCAGGCCACACAGAGCGACGTGCTGCAAGAGATCCAGAGCAACTTCCTGCTGAACAGCAGCATCTGGGTCAACATTGCCCTGGCCGGCGTTGTGATCCTGCTGTTTGTGGCCATGGGCCGCGATCTGGAAAGCCCTAGAGCCAAGCTGATCTGGGTCGCCACAATGCTGGTGCCCCTGGTGTCTATCAGCAGCTATGCCGGACTGGCCTCTGGCCTGACAGTGGGCTTTCTGCAAATGCCTCCTGGACACGCCCTGGCTGGACAAGAAGTTCTGTCTCCCTGGGGCAGATACCTGACCTGGACCTTCAGCACCCCTATGATTCTGCTGGCCCTGGGACTGCTGGCCGATACAGATATCGCCAGCCTGTTCACCGCCATCACCATGGACATCGGGATGTGTGTGACAGGCCTGGCCGCTGCTCTGATCACAAGCAGCCATCTGCTGAGATGGGTGTTCTACGGAATCAGCTGCGCCTTCTTCGTGGCCGTGCTGTATGTGCTGCTGGTGCAGTGGCCTGCCGATGCTGAAGCTGCCGGAACCTCTGAGATCTTCGGCACCCTGAGAATCCTGACCGTGGTGCTGTGGCTGGGCTACCCTATTCTGTTTGCCCTGGGCTCTGAAGGCGTGGCACTGCTGTCTGTGGGAGTGACAAGCTGGGGCTATAGCGGCCTGGACATCCTGGCCAAATACGTGTTCGCCTTTCTGCTCCTCAGATGGGTCGCCGCCAATGAGGGAACAGTGTCTGGCTCTGGCATGGGCATTGGATCTGGCGGAGCTGCCCCTGCTGATGATCCAGCTGCTGCCACCTATCCTTACGACGTGCCCGACTACGCCTGATGAGCTGCCTTCTGCGGGGCTTGCCTTCTGGCCATGCCCTTCTTCTCTCCCTTGCACCTGTACCTCTTGGTCTTTGAATAAAGCCTGAGTAGGAAGGCTCGCTTTCTTGCTGTCCAATTTCTATTAAAGGTTCCTTTGTTCCCTAAGTCCAACTACTAAACTGGGGGATATTATGAAGGGCCTTGAGCATCTGGATTCTGCCTAATAAAAAACATTTATTTTCATTGCGC
Consider B2, for which the “opsin function in dual transfection” value in series [5] (500 ng each of ChR2 and JAWS mRNA, next day, pulsed blue light and orange light) is recorded as “function of both opsins”. For the same molecule, in series [5] (period of 10 seconds orange light), the “inhibition of beating under continuously applied orange light” value was “inhibited beating completely”. In addition, in series [5] (second highest and highest amounts of delivery vehicle), the “time post-transfection at which complete capture (synchronization or complete inhibition) was observed” value worked out at 24 h.
